# According to paper PMC5452035 (2017):
# Non-standard residues stand in square brackets, D forms with d. No end group written: not given here. pT = C[C@@H](OP(=O)(O)O)[C@H](N)C(=O)O; FAM = 5,6-carboxyfluorescein
# Target: T1, Rtt103p CID Q19A (Saccharomyces cerevisiae)
# T1 chain: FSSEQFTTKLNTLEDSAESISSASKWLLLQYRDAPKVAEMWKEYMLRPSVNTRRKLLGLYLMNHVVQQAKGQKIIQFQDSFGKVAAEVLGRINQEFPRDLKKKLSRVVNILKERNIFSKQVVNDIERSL
# Assay: FP
binder,measurement,value
{FAM}-PSYSP[pT]SPSYSPTSPS [FAM-PSYSP(pT)SPSYSPTSPS],Kd,48 µM
